Results as given in US20250043302A1, “MUTATED HYDROXYPHENYLPYRUVATE DIOXYGENASE POLYPEPTIDE, AND CODING GENE AND USE THEREOF” (BEIJING DABEINONG BIOTECHNOLOGY CO., LTD., priority 2021, published 2025).

Legend:
Type in all cases: in vivo
[1] = tested on: Arabidopsis thaliana T1 plants; experiment: Mesotrione tolerance of transgenic Arabidopsis thaliana T1 plants (spray, bleached leaf area grade, damage score); design: Scores: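 damage score 0-100 computed as Σ(N×S)/(T×M)×100 over grades 0-3 with higher meaning more damage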; details: Arabidopsis thaliana T1 plants; for Grade 0 (classification and statistics of the grade of pesticide damage; number of plants) / Grade 1 (classification and statistics of the grade of pesticide damage; number of plants) / Grade 2 (classification and statistics of the grade of pesticide damage; number of plants) / Grade 3 (classification and statistics of the grade of pesticide damage; number of plants): 16 plants
Procedure, shortened: (§1)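 Damage was assessed by bleaching grade (0 none; 1 <50%; 2 >50%; 3 100% of leaf area) one week after spraying. Sprays on 18-day-old T1 and wild-type plants used field-rate multiples: topramezone 25–200, isoxaflutole 35–280, mesotrione 52.5–420 g ai/ha.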

[2] = tested on: Arabidopsis thaliana T1 plants; experiment: Isoxaflutole tolerance of transgenic Arabidopsis thaliana T1 plants (spray, bleached leaf area grade, damage score); design: Scores (pesticide damage): scale not given here; details: spray, Arabidopsis thaliana T1 plants; for Classification and statistics of the grade of pesticide damage: Grade 0 (number of plants) / Classification and statistics of the grade of pesticide damage: Grade 1 (number of plants) / Classification and statistics of the grade of pesticide damage: Grade 2 (number of plants) / Classification and statistics of the grade of pesticide damage: Grade 3 (number of plants): 16 plants
Procedure, shortened: as §1

[3] = tested on: Arabidopsis thaliana T1 plants; experiment: Topramezone tolerance of transgenic Arabidopsis thaliana T1 plants (spray, bleached leaf area grade, damage score); details: 7 DAT, Table 4; for Classification and statistics of the grade of pesticide damage: Grade 0 / Classification and statistics of the grade of pesticide damage: Grade 1 / Classification and statistics of the grade of pesticide damage: Grade 2 / Classification and statistics of the grade of pesticide damage: Grade 3: number of plants; for Scores: pesticide damage score 0-100
Procedure, shortened: as §1

[4] = isoxaflutole 35 g ai/ha (0.5x field concentration)
[5] = isoxaflutole 70 g ai/ha (1x field concentration)

B1: AtHPPDm-F383W-02: nucleotide sequence encoding Arabidopsis thaliana HPPD with F383W; vector DBN11732 (nucleic acid)
DNA: ATGGGACATCAGAATGCTGCTGTATCAGAAAATCAAAATCATGATGATGGAGCCGCCTCCTCACCAGGGTTTAAGTTGGTTGGGTTCTCCAAGTTTGTACGGAAGAACCCAAAATCCGACAAGTTCAAGGTTAAACGCTTCCACCACATTGAATTCTGGTGCGGCGACGCCACCAATGTTGCTCGGCGTTTTTCATGGGGTTTAGGCATGAGATTCTCAGCAAAGAGTGACCTGAGCACCGGCAACATGGTTCATGCTAGCTATCTCTTAACATCTGGAGATTTGAGGTTTCTTTTCACGGCGCCGTACTCACCATCACTCTCCGCCGGCGAGATCAAACCCACCACGACTGCAAGCATACCTTCATTTGATCATGGTAGTTGCAGATCCTTCTTCTCGTCGCACGGCCTAGGGGTGCGCGCGGTCGCCATCGAAGTTGAAGATGCAGAATCAGCGTTTAGTATCAGCGTGGCAAATGGAGCTATTCCTTCCTCCCCTCCAATTGTCCTCAATGAGGCTGTAACTATTGCCGAGGTGAAGTTGTATGGAGATGTTGTGCTGAGATATGTTTCTTACAAGGCAGAGGACACTGAGAAATCTGAATTTTTGCCTGGTTTTGAAAGGGTCGAGGATGCTTCAAGTTTTCCTCTTGATTACGGCATACGACGGTTGGATCACGCGGTTGGAAATGTACCAGAACTTGGGCCGGCGCTCACTTATGTGGCTGGTTTCACTGGATTCCATCAATTTGCTGAGTTCACAGCTGATGATGTTGGGACTGCTGAAAGTGGGTTGAACTCTGCAGTCCTCGCCTCTAATGATGAAATGGTGCTCCTCCCGATCAACGAGCCTGTGCATGGCACCAAAAGGAAATCACAAATACAGACATATCTTGAGCACAATGAAGGTGCAGGGCTTCAACATCTTGCACTGATGTCTGAAGACATTTTCCGTACGCTGAGAGAGATGAGGAAGAGAAGTAGTATTGGTGGATTTGACTTCATGCCTTCTCCCCCACCAACTTACTACCAGAACTTGAAGAAGAGGGTTGGTGATGTGCTATCTGATGACCAGATCAAGGAGTGTGAAGAATTGGGCATTCTTGTTGATCGGGACGACCAAGGAACATTACTGCAGATATTTACAAAACCACTTGGTGACCGCCCCACTATTTGGATTGAGATCATACAAAGAGTCGGCTGCATGATGAAGGATGAGGAAGGAAAAGCATATCAATCTGGTGGTTGTGGCGGCTTTGGGAAAGGAAACTTCTCTGAGCTGTTCAAATCCATCGAGGAGTATGAGAAGACCTTGGAGGCCAAGCAGCTCGTGGGTTGA
modifications: AtHPPDm-F383W-02 Nucleotide Sequence
notes: vector DBN11732
**Q.** What does the source list for B1?
**A.** Resistance evaluation ([1]; mesotrione 52.5 g ai/ha): Non-resistant; Scores ([1]; mesotrione 52.5 g ai/ha): 100; Grade 0 (classification and statistics of the grade of pesticide damage; number of plants) ([1]; mesotrione 52.5 g ai/ha): 0; Grade 1 (classification and statistics of the grade of pesticide damage; number of plants) ([1]; mesotrione 52.5 g ai/ha): 0; Grade 2 (classification and statistics of the grade of pesticide damage; number of plants) ([1]; mesotrione 52.5 g ai/ha): 0; Grade 3 (classification and statistics of the grade of pesticide damage; number of plants) ([1]; mesotrione 52.5 g ai/ha): 16; Resistance evaluation ([1]; mesotrione 105 g ai/ha): Non-resistant; Scores ([1]; mesotrione 105 g ai/ha): 100; Grade 0 (classification and statistics of the grade of pesticide damage; number of plants) ([1]; mesotrione 105 g ai/ha): 0; Grade 1 (classification and statistics of the grade of pesticide damage; number of plants) ([1]; mesotrione 105 g ai/ha): 0; Grade 2 (classification and statistics of the grade of pesticide damage; number of plants) ([1]; mesotrione 105 g ai/ha): 0; Grade 3 (classification and statistics of the grade of pesticide damage; number of plants) ([1]; mesotrione 105 g ai/ha): 16; Resistance evaluation [2, 4]: Non-resistant; Scores (pesticide damage) [2, 4]: 77; Classification and statistics of the grade of pesticide damage: Grade 0 (number of plants) [2, 4]: 0; Classification and statistics of the grade of pesticide damage: Grade 1 (number of plants) [2, 4]: 2; Classification and statistics of the grade of pesticide damage: Grade 2 (number of plants) [2, 4]: 7; Classification and statistics of the grade of pesticide damage: Grade 3 (number of plants) [2, 4]: 7; Resistance evaluation [2, 5]: Non-resistant; Scores (pesticide damage) [2, 5]: 100; Classification and statistics of the grade of pesticide damage: Grade 0 (number of plants) [2, 5]: 0; Classification and statistics of the grade of pesticide damage: Grade 1 (number of plants) [2, 5]: 0; Classification and statistics of the grade of pesticide damage: Grade 2 (number of plants) [2, 5]: 0; Classification and statistics of the grade of pesticide damage: Grade 3 (number of plants) [2, 5]: 16; Classification and statistics of the grade of pesticide damage: Grade 0 ([3]; topramezone 25 g ai/ha (1×)): 0; Classification and statistics of the grade of pesticide damage: Grade 1 ([3]; topramezone 25 g ai/ha (1×)): 2; Classification and statistics of the grade of pesticide damage: Grade 2 ([3]; topramezone 25 g ai/ha (1×)): 5; Classification and statistics of the grade of pesticide damage: Grade 3 ([3]; topramezone 25 g ai/ha (1×)): 9; Classification and statistics of the grade of pesticide damage: Grade 0 ([3]; topramezone 100 g ai/ha (4×)): 0; Classification and statistics of the grade of pesticide damage: Grade 1 ([3]; topramezone 100 g ai/ha (4×)): 0; Classification and statistics of the grade of pesticide damage: Grade 2 ([3]; topramezone 100 g ai/ha (4×)): 2; Classification and statistics of the grade of pesticide damage: Grade 3 ([3]; topramezone 100 g ai/ha (4×)): 14; Scores ([3]; topramezone 25 g ai/ha (1×)): 81; Scores ([3]; topramezone 100 g ai/ha (4×)): 96; Resistance evaluation ([3]; topramezone 25 g ai/ha (1×)): non-resistant (non-resistant plants (scores 68-100)); Resistance evaluation ([3]; topramezone 100 g ai/ha (4×)): non-resistant (non-resistant plants (scores 68-100))
